# Experimental data as given in article PMC9369135, “An FGFR1-Binding Peptide Modified Liposome for siRNA Delivery in Lung Cancer” (International Journal of Molecular Sciences, 2022).
# Where no end group is shown, it is not given here.
# T1: Human FGFR1/CD331 protein (His tag) (human, UniProt P11362 22-376)
# T1 construct: human FGFR1/CD331, recombinant protein with His tag, Sino Biological 10616-H08H; Check the vendor's data sheet; source: bought: Sino Biological
# T1 sequence (looked up): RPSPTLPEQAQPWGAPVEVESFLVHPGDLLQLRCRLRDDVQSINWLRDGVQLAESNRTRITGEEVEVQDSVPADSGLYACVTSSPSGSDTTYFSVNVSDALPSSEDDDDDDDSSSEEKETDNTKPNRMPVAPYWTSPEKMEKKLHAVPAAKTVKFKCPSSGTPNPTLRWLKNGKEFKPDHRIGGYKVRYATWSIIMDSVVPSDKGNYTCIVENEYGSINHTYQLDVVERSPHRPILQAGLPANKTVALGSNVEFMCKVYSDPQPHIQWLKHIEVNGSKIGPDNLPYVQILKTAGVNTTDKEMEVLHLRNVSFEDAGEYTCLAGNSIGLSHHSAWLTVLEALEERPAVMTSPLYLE
# B1: CP7 peptide (CIQPFYP) (peptide)
# peptide: CIQPFYP
# modifications: also: labelled, label not named
# notes: novel peptide designed and screened by the authors' group; The methods of the MST say only 'the labeled peptide'; source: synthetic peptide: Shanghai GL Biochem Peptide Ltd
# Columns and labels:
# Test in all cases: MST; protein in a series of gradient dilutions, an equal amount of labeled CP7 peptide added; PBS with 0.05% Tween-20; glass capillary; room temperature; Monolith NT.115
# Conditions in all cases: both partners purified
# [1] = target: T2, Human EGFR/HER1/ErbB1 protein (His tag) (human, UniProt P00533 25-645)
# T2 construct: human EGFR/HER1/ErbB1, recombinant protein with His tag, Sino Biological 10001-H08H; Check the vendor's data sheet; source: bought: Sino Biological
# [2] = target: T1, Human FGFR1/CD331 protein (His tag)
# [3] = target: T3, Human VEGFR1/FLT-1 protein (Fc tag) (human, UniProt P17948 27-758)
# T3 construct: human VEGFR1/FLT-1, recombinant protein with Fc tag, Sino Biological 10136-H02H; Check the vendor's data sheet; source: bought: Sino Biological
# T3 sequence (P17948 27-758): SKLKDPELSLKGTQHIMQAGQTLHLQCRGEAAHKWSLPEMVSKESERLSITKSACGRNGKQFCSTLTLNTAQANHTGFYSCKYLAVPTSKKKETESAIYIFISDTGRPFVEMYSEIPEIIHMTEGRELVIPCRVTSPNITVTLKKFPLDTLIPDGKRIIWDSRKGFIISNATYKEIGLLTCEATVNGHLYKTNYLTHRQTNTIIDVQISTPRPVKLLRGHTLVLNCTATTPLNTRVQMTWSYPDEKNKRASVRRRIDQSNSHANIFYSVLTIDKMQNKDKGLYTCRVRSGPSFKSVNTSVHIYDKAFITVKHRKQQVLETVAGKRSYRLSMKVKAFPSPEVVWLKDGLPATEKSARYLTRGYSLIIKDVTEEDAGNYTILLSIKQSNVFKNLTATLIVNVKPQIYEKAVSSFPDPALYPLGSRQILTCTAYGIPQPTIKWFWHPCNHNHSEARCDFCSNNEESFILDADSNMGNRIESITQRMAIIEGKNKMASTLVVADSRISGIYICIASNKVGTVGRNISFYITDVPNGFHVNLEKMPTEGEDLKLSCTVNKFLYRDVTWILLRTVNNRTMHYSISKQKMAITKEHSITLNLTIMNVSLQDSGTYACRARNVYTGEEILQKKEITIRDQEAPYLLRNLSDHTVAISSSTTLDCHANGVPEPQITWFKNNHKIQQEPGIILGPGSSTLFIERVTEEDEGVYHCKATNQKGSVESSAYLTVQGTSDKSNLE
binder,measurement,setting,value
B1,Kd,[1],389 nM
same,Kd,[2],22.5 nM
same,Kd,[3],66.1 nM
